Laboratory results reported in publication PMC10793500, “Structural insights into RNA cleavage by a novel family of bacterial RNases” (Research Square, 2023).

Target: the molecule itself
Assay: crystal structure; apo YicC; hanging drop vapor diffusion, 0.1M Tris pH 8.5, 0.3M lithium sulfate, 25% PEG 3350; six copies in the asymmetric unit

B1: YicC (E. coli endoribonuclease, proposed name RNase CS) (enzyme, UniProt P23839 1-287, looked up)
chain: MIRSMTAYARREIKGEWGSATWEMRSVNQRYLETYFRLPEQFRSLEPVVRERIRSRLTRGKVECTLRYEPDVSAQGELILNEKLAKQLVTAANWVKMQSDEGEINPVDILRWPGVMAAQEQDLDAIAAEILAALDGTLDDFIVARETEGQALKALIEQRLEGVTAEVVKVRSHMPEILQWQRERLVAKLEDAQVQLENNRLEQELVLLAQRIDVAEELDRLEAHVKETYNILKKKEAVGRRLDFMMQEFNRESNTLASKSINAEVTNSAIELKVLIEQMREQIQNIE
notes: YicC of E. coli, the prototypical member of the YicC family of endoribonucleases; Expressed from a modified pET47b vector; also called apo YicC; source: E. coli (culture of EG1261, IPTG induced), purified (Ni-NTA, SUMO-protease cleavage, Superdex 200; for cryo-EM also Hitrap Q)
stoichiometry N: 6
